Values joined by “and” are separate entries in the source; they are usually repeats but may differ in a detail not shown here. Equal entries are not always repeated. Where two headings read alike, the source gives them in different places.
Key:
[1] = biological target: T1, Go (Bos taurus, UniProt P08239)
Description: Trimeric Go was purified to homogeneity from bovine brain as described (Katada et al., FEBS Lett. 213:353-358, 1987). This Go preparation was stored in 20 mM Hepes/NaOH (pH 7.4), 1 mM EDTA, and 0.7% CHAPS, and diluted ≥10 fold for assays.
GTPγS binding to Go was assayed in a buffer containing 50 mM Hepes/NaOH (pH 7.4), 100 μM EDTA, 120 μM MgCl2, and 60 nM [^35 S]GTPγS (DuPont-New England Nuclear) at 37° C., and the fraction of total Go bound to GTPγS was measured as described (Okamoto et al., Cell 62:709-717, 1990). […] The total amount of Go in a given preparation was defined as the saturation amount of GTPγS bound to Go following a 30-min incubation of Go with 10 mM Mg^2+ and ≥60 nM GTPγS at 30° C.
In the experiment shown in FIG. 1(b), 10 nM Go was incubated with water or 100 μM of each peptide for 2 min, and the amount of GTPγS bound to Go at the end of this period was measured. In the experiment shown in FIG. 1(c), 10nM Go was incubated with water (O) or 100 μM peptide 20 (SEQ ID NO: 1) (.oval-solid.), and GTPγS binding was measured at the indicated times. […] GTPγS binding to Go in the presence or absence of peptide 20 (SEQ ID NO: 1) obeyed first-order kinetics according to the equation
(B is the binding at time t; BT is the total binding observable at infinite time; and kapp is the rate constant for GTPγS binding).
In this experiment, 10 nM Go was incubated with various concentrations of [sequence] (peptide 20, SEQ ID NO: 1; .quadrature.), [sequence] (H-deleted, SEQ ID NO: 14; .diamond.), [sequence] (HH-deleted, SEQ ID NO: 15; .quadrature.), [sequence] (RHLSK-deleted, SEQ ID NO: 16; .diamond-solid.), or [sequence] (KQYTSI-added, SEQ ID NO: 17; .box-solid.), and GTPγS binding to Go at 2 min. was measured.

[2] = biological target: T2, APP-Go complex (Bos taurus, UniProt P08239); assay: 22C11 (anti-APP) immunoprecipitation of APP and co-precipitation of Go from solubilized brain membranes; format: binding, bovine; settings: 10 μM peptide, FIG. 2d
T2 construct: APP immunoprecipitated with 22C11, co-precipitated Go alpha detected by GC/2
T2 sequence (P08239 whole entry): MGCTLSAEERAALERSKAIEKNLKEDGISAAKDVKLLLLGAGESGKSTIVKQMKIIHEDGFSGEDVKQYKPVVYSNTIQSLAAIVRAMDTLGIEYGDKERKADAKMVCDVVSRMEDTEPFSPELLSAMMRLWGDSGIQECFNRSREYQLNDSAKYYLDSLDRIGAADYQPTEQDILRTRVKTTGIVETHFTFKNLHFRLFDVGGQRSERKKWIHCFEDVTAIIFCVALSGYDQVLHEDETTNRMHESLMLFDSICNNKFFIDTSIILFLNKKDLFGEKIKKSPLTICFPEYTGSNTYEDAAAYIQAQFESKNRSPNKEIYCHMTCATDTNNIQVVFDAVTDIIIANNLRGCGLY
T2 sequence (Q28053 whole entry partner): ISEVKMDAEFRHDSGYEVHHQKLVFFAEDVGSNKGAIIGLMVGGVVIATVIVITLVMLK
T2 sequence (P62871 whole entry partner): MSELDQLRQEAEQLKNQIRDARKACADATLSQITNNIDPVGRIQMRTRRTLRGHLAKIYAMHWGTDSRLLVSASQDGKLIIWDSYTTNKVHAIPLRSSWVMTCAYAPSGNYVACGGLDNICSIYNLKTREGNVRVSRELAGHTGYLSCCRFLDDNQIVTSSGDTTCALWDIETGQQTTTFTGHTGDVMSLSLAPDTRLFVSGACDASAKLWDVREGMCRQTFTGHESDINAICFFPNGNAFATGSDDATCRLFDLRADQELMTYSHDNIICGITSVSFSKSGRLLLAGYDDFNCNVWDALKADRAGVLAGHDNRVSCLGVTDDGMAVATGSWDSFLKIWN
T2 sequence (P63212 1-68 partner): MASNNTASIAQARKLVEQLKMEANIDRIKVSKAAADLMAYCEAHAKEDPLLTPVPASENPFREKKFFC
Description: As a control, 2 μg/ml of rabbit IgG was used. After overnight shaking at 4° C., the immunoprecipitated sample was centrifuged at 5000 rpm for 5 min. The pellet was washed three times with ice-cold buffer C and the final pellet was applied to SDS-PAGE. Electroblotting onto a PVDF sheet was performed as described (Okamoto et al., J. Biol. Chem. 266:1085-1091, 1991). After blocking with PBS containing 2% skim milk and 1% BSA, the sheet was incubated with the first antibody [1 μg/ml of 22C11; 1/1000 dilution of anti-Go α monoclonal antibody GC/2 (DuPont-New England Nuclear); 1/1000 dilution of 1C1, a monoclonal antibody against the C-terminal peptide 677-695 of APP695 ] for 4 h, and then exposed to horseradish peroxidase-conjugated goat IgG reactive for mouse or rabbit immunoglobulins for 2-4 h at room temperature. The antigenic bands were detected with an ECL detection kit (Amersham). YL1/2 (SERA Lab), an anti-tubulin antibody, was used at 1:500 dilution for immunodetection.
In this experiment, solubilized brain membranes were incubated with 22C11-coated beads in the presence of 10 μM peptide 20 (SEQ ID NO: 1; 2nd and 5th lanes) or 10 μM of the control peptide, peptide677-695 of APP (SEQ ID NO: 13; 3rd and 6th lanes), or in the absence of both of these peptides (1st and 4th lanes). In this experiment, an anti-mouse IgG antibody different from that used in (a) was employed.

[3] = tested on: smg p25A; assay: Effect of peptide on low molecular weight G protein smg p25A; format: biochemical; settings: data not shown
Source text: (§1) Biophys. Acta 161:1280-1285, 1989.

[4] = tested on: Gi3; assay: Effect of peptide on G proteins other than Go: Gi3; format: biochemical; settings: data not shown
Source text: as §1

[5] = biological target: c-Ki-ras p21; assay: Effect of peptide on low molecular weight G protein c-Ki-ras p21; format: biochemical; settings: data not shown
Source text: as §1

[6] = biological target: T1, Go; assay: Storage stability of the Go-activating ability of the peptide; format: physicochemical, bovine; settings: storage at either -4° C. or -20° C.
[7] = tested on: GS; assay: Effect of peptide on G proteins other than Go: GS; format: biochemical; settings: data not shown
Source text: as §1

[8] = tested on: Gi2; assay: Effect of peptide on G proteins other than Go: Gi2; format: biochemical; settings: data not shown
Source text: as §1

[9] = tested on: Gi1; assay: Effect of peptide on G proteins other than Go: Gi1; format: biochemical; settings: data not shown
Source text: as §1

[10] = tested on: Go reconstituted in phospholipid vesicles; assay: GTPγS binding to Go reconstituted in phospholipid vesicles; format: biochemical, bovine; settings: FIG. 1(e)
Description: as §1
GTPγS binding to peptides was negligible.
Reconstitution of Go into phospholipid vesicles was accomplished with 1 mg/ml of phosphatidylcholine, using the gel filtration method (Nishimoto et al., J. Biol. Chem. 264:14029-14038, 1989). In a final incubation for GTPγS binding, 5 nM of reconstituted Go was used.
As illustrated in FIG. 1(e), Go reconstituted in phospholipid vesicles was incubated with transmembrane region-connected peptide 20 ([…], SEQ ID NO: 18; .quadrature.) or the partial sequence of the APP transmembrane domain alone (TVIVITLVML, SEQ ID NO: 7; .quadrature.). Transmembrane region-connected peptide 20 (SEQ ID NO: 18) was also incubated with Go in the absence of phospholipids and the presence of 0.07% CHAPS (.diamond-solid.). The transmembrane region-connected peptide 20 (SEQ ID NO: 18) stimulated Go reconstituted in phospholipid vesicles with a potency 10 times greater than that of peptide 20 (SEQ ID NO: 1). […]
Preactivation of pertussis toxin (Funakoshi, Japan) was carried out by treating the toxin with 100 μM ATP and 1 mM DTT for 10 min at 30° C. […] Increasing concentrations of peptide 20 (SEQ ID NO: 1) were incubated for 2 min with Go reconstituted in phospholipid vesicles which had been treated with pertussis toxin in the presence (.diamond-solid.) or absence (.quadrature.) of NAD, and GTPγS binding to Go was measured.

[11] = biological target: Trimeric Go purified from bovine brain (bovine) (UniProt P08239); assay: 22C11-precipitate of Sf9 membranes incubated with 1 µg purified Go, immunoblot
[12] = biological target: Trimeric Go purified from bovine brain (bovine) (UniProt P08239)
[13] = 10 nM Go, various peptide concentrations, 2 min, FIG. 1(d)

T1 sequence (P08239 whole entry): as the sequence (P08239 whole entry) above
T1 sequence (P62871 whole entry partner): as the sequence (P62871 whole entry partner) above
T1 sequence (P63212 1-68 partner): as the sequence (P63212 1-68 partner) above
Chain of recombinant full-length APP695 expressed in Sf9 cells (receptor) (chain): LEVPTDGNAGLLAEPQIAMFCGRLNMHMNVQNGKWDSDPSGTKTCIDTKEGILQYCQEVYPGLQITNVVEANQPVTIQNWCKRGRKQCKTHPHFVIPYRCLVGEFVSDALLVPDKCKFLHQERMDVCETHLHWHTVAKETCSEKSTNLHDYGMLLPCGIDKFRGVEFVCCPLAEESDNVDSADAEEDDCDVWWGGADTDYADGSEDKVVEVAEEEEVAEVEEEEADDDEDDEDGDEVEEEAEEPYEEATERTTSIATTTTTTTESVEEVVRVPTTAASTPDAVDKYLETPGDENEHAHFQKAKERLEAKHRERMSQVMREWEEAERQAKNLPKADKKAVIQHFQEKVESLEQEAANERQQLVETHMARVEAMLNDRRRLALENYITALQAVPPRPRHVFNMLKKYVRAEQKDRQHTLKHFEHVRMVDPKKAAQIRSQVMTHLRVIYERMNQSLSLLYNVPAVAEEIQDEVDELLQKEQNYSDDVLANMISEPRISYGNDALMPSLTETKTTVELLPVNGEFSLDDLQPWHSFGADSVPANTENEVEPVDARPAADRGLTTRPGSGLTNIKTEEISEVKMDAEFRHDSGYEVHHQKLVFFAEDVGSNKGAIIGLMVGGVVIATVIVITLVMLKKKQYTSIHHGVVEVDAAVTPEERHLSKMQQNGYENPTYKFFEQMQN

GVVEVDAAVTPEERHLSK [HH-deleted]
Go-activator function of peptide 20 variants (GTPγS binding to Go at 2 min) [1, 13]: nullified Go -activator function

HGVVEVDAAVTPEERHLSK [H-deleted]
Go-activator function of peptide 20 variants (GTPγS binding to Go at 2 min) [1, 13]: nullified Go -activator function

HHGVVEVDAAVTPEE [RHLSK-deleted]
potency relative to peptide 20 in stimulating Go [1, 13]: several times less potent than peptide 20

HHGVVEVDAAVTPEERHLSK [peptide 20, peptide corresponding to the His657-Lys676 region of APP]
22C11-mediated co-precipitation of Go [2]: prevents the 22C11-mediated co-precipitation of Go | precipitation of APP by 22C11 [2]: did not affect the precipitation of APP by 22C11 | rate constant of GTPγS binding to Go ([1]; 10 nM Go, increasing peptide concentrations, FIG. 1(d)): stimulated the rate constant of GTPγS binding to Go in a dose-dependent manner | stimulation of GTPγS binding to Go ([1]; low (≤100 nM) or high (≥10 mM) Mg2+ concentrations): could not be observed | stimulation of GTPγS binding to Go ([1]; purified trimeric go): 2-3 fold | stimulation of smg p25A [3]: not stimulated | stimulation of Gi3 [4]: not stimulated | stimulation of c-Ki-ras p21 [5]: not stimulated | ability to activate Go during storage [6]: gradually decreased during storage | stimulation of GS [7]: not stimulated | stimulation of Gi2 [8]: not stimulated | stimulation of Gi1 [9]: not stimulated

MQQNGYENPTYKFFEQMQN [APP(677-695), peptide corresponding to C-terminal residues 677-695 of APP695, used as control peptide]
22C11-mediated co-precipitation of Go [2]: no discernable effect

TVIVITLVML [APP(639-648), a portion of the transmembrane region of APP]
effect on Go (GTPγS binding) [10]: without effect on Go

TVIVITLVMLHHGVVEVDAAVTPEERHLSK [peptide 20 linked to a portion of the APP transmembrane region]
effect on Go compared with peptide 20 ([1]; absence of phospholipids, presence of 0.07% CHAPS, FIG. 1(e)): no more potent than peptide 20 | potency in stimulating Go relative to peptide 20 [10]: 10 times

recombinant full-length APP695 expressed in Sf9 cells (receptor)
amount of reconstituted Go precipitated [11]: 0.05 µg/tube and 0.1 µg/tube

TVIVITLVMLHHGVVEVDAAVTPEERHLSK [transmembrane region-connected peptide 20]
GTPγS binding to Go reconstituted in phospholipid vesicles (times greater potency than peptide 20) [12]: 10
